Values belong to the binder of their own block, whether it stands above or below them.
Experiments:
[1] = molecular target: T1, BMPRIb receptor/Fc fusion (R&D Systems) (UniProt O00238 14-126); test: plate direct binding assay (ELISA-like): BMP-7 captured by anti-BMP-7 antibody, receptor-Fc titrated (x axis Receptor, ug/mL), anti-human IgG-HRP, absorbance 450 nm
T1 construct: also called ALK-6; not shown: Fc portion of the fusion
T1 sequence (looked up): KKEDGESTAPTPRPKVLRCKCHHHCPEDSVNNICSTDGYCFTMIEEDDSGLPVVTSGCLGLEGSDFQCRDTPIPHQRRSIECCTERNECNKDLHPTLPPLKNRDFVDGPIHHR

[2] = molecular target: T2, BMPRIa receptor/Fc fusion (R&D Systems) (UniProt P36894 24-152); test: as above
T2 construct: also called ALK-3; not shown: Fc portion of the fusion
T2 sequence (P36894 24-152 limits assumed): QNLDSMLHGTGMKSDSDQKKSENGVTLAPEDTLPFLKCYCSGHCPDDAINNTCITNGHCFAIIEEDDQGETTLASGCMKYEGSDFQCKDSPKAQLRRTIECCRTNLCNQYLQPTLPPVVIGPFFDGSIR

[3] = molecular target: T3, ActRIIa receptor/Fc fusion (R&D Systems) (UniProt P27037 20-134, limits assumed); test: as above
T3 construct: not shown: Fc portion of the fusion
T3 sequence (P27037 20-134 limits assumed): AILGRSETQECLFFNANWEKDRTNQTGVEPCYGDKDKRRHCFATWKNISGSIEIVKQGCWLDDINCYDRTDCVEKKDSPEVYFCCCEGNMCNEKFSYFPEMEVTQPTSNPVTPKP

[4] = molecular target: T4, BMPRII receptor/Fc fusion (R&D Systems) (UniProt Q13873 27-151, limits assumed); test: as above
T4 construct: not shown: Fc portion of the fusion
T4 sequence (looked up): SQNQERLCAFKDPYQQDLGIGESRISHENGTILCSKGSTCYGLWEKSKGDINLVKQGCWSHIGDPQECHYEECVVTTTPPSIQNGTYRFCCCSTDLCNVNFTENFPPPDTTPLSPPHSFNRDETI

[5] = molecular target: T3, ActRIIa receptor/Fc fusion (R&D Systems); test: plate direct binding assay, receptor-Fc detection, 12-point dilution of conditioned media
Experimental: (§1) The affinity of human and variant BMP-7 for several BMP receptors (ActRIa, BMPRIb, ActRIIa, and BMPRII) was measured using an ELISA-like assay, described below. 96-well plates were coated with a capture antibody (R&D Systems BMP-7 ELISA Duoset DY354, part #840971) by diluting the antibody to 2 μg/mL in PBS, applying 50 μL/well, and incubating overnight or over the weekend at 4° C., in a humidified chamber. Excess liquid was removed from each plate. The plates were blocked by adding 175 μL blocking solution (1% BSA and 5% sucrose in PBS) to each well and incubating 1-2 hours at room temperature in a humidified chamber. The plates were then washed using an automated plate washer. 50 μL of BMP-7 containing solution (for example, diluted conditioned media obtained from the BMP-7 expression protocol above, or purified recombinant human BMP-7 of a known concentration) was added to each well and incubated 1.5-2 hours at room temperature in a humidified chamber. The plates were then washed using an automated plate washer. 50 μL of 5 μg/mL BMP receptor-Fc fusion in PBS was added to each well and incubated 1.5 hours at room temperature in a humidified chamber. The plates were then washed using an automated plate washer. 50 μL of 1:10,000 diluted anti-human IgG-HRP conjugate in secondary antibody dilution buffer (1% BSA in PBS, filtered through a 0.2 […] filter) was added to each well and incubated 30 minutes at room temperature in a humidified chamber. The plates were then washed using an automated plate washer. 50 μL of pre-mixed TMB substrate (BD Pharmingen #555214) was added to each well and incubated for 10-20 minutes at room temperature in the dark. 25 μL of 2N H₂SO₄ was added to each well. Absorbance readings at 450 nm were taken using a 540 nm wavelength correction.
(§2) To further characterize receptor binding, dose-response binding assays, using 12-point serial dilutions from conditioned media, were conducted for selected Library 1 variants.

[6] = molecular target: T4, BMPRII receptor/Fc fusion (R&D Systems); test: as above
Experimental: as §1, §2

[7] = molecular target: T5, ActRIIb receptor/Fc fusion (R&D Systems) (UniProt Q13705 19-134, limits assumed); test: fluorescence anisotropy, labeled BMP-7 added to serial dilutions of receptor/Fc fusion (x axis [receptor] uM)
T5 construct: not shown: Fc portion of the bought fusion
T5 sequence (Q13705 19-134 limits assumed): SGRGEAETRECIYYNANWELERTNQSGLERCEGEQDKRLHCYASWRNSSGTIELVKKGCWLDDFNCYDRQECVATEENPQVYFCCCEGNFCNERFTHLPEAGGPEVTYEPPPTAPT
Experimental: (§3) The binding of selected variants to BMP receptors, antibodies, and inhibitors was characterized using a fluorescence binding assay and the AlphaScreen™ assay. […] Small-scale (25 uL) reactions were performed using 15 uM BMP-7 and dye concentrations ranging from 0.3 uM to 1000 uM. […] The reaction was quenched with Tris pH 8.0 and cleaned up using a PD-10 desalt column; the second fraction was used in the experiments described below. BMP-7 was also labeled with C6-FXS, a FITC-derived fluorophore with a 6-carbon spacer between the fluor and the NHS group. Labeling conditions with various ratios of protein to dye were tested, in 20 mM PO4, 500 mM NaCl, pH 7 solution. After establishing labeling conditions, 500 ug Y65N/S120D was labeled. Excess dye was removed by centrifugation and a PD-10 desalt column.
(§4) The flourescently labeled BMP-7 was added to serial dilutions of receptor/Fc fusions of the BMP-7 receptors ActRIa, BMPRIa, BMPRIb, ActRIIa, ActRIIb, and BMPRII (R&D Systems). Experiments were also performed in which the fluorescently labeled BMP-7 was added to serial dilutions of noggin/Fc or gremlin (R&D Systems). The labeled BMP-7 and receptor or inhibitor was allowed to incubate, and the fluorescence polarization and intensity was measured using a TopCount plate reader.

[8] = molecular target: T2, BMPRIa receptor/Fc fusion (R&D Systems); test: as above
Experimental: as §3, §4

[9] = molecular target: T3, ActRIIa receptor/Fc fusion (R&D Systems); test: as above
Experimental: as §3, §4

B1: wild type human BMP-7 (Image clone) (ligand)
chain: STGGKQRSQNRSKTPKNQEALRMASVAENSSSDQRQACKKHELYVSFRDLGWQDWIIAPEGYAAYYCEGECAFPLNSYMNATNHAIVQTLVHFINPETVPKPCCAPTQLNAISVLYFDDSSNVILKKYRNMVVRACGCH
notes: The pro-protein is processed to a dimeric mature BMP-7; also called WT; wild-type BMP-7
EC50 (read off the curve) [1]: ~0.7 µg/mL | EC50 (read off the curve) [2]: ~1 µg/mL | EC50 (read off the curve) [3]: ~0.2 µg/mL | EC50 (read off the curve) [4]: ~1 µg/mL

B2: BMP-7 variant M23N (ligand)
chain: STGGKQRSQNRSKTPKNQEALRNASVAENSSSDQRQACKKHELYVSFRDLGWQDWIIAPEGYAAYYCEGECAFPLNSYMNATNHAIVQTLVHFINPETVPKPCCAPTQLNAISVLYFDDSSNVILKKYRNMVVRACGCH
fold increased affinity relative to wild type [5]: ~10 fold

B3: BMP-7 variant I86D (ligand)
chain: STGGKQRSQNRSKTPKNQEALRMASVAENSSSDQRQACKKHELYVSFRDLGWQDWIIAPEGYAAYYCEGECAFPLNSYMNATNHADVQTLVHFINPETVPKPCCAPTQLNAISVLYFDDSSNVILKKYRNMVVRACGCH
fold reduced affinity relative to wild type [6]: ~10 fold

The remaining lines, values ahead:

fold increased affinity relative to wild type [5]: ~10 fold
B4: BMP-7 variant Q53G (ligand)
chain: STGGKQRSQNRSKTPKNQEALRMASVAENSSSDQRQACKKHELYVSFRDLGWGDWIIAPEGYAAYYCEGECAFPLNSYMNATNHAIVQTLVHFINPETVPKPCCAPTQLNAISVLYFDDSSNVILKKYRNMVVRACGCH

fold reduced affinity relative to wild type [6]: ~10 fold
B5: BMP-7 variant Q53H (ligand)
chain: STGGKQRSQNRSKTPKNQEALRMASVAENSSSDQRQACKKHELYVSFRDLGWHDWIIAPEGYAAYYCEGECAFPLNSYMNATNHAIVQTLVHFINPETVPKPCCAPTQLNAISVLYFDDSSNVILKKYRNMVVRACGCH

EC50 (read off the curve) [7]: ~2000 nM | EC50 (read off the curve) [8]: ~1000 nM | EC50 (read off the curve) [9]: ~3000 nM
B6: FXS labeled BMP7 (ligand)
BMP-7 mature domain: STGGKQRSQNRSKTPKNQEALRMASVAENSSSDQRQACKKHELYVSFRDLGWQDWIIAPEGYAANYCEGECAFPLNSYMNATNHAIVQTLVHFINPETVPKPCCAPTQLNAISVLYFDDDSNVILKKYRNMVVRACGCH
modifications: labeled with C6-FXS (FITC-derived NHS fluorophore); labeled sites not given
notes: the C6-FXS form of the labeled BMP-7 that the list holds jointly as 1.m9; also called BMP-7 variant Y65N/S120D labeled with C6-FXS
